In the assay the target is T1, AMA1_GKO-HC2.2.
T1 construct: PfAMA1_GKO fused to human IgG1 constant region with K392D and K409D already in the entry; also called AMA1GKO-modHC2_K392D-K409D; PfAMA1_GKO-HC2.2-ER
Put plainly: co-expression in N. benthamiana, SDS-PAGE under reducing and non-reducing conditions.

B1: MSP119_3D7-HC1.2-ER (Fc fusion)
chain: ISQHQCVKKQCPENSGCFRHLDEREECKCLLNYKQEGDKCVENPNPTCNENNGGCDADATCTEEDSGSSRKKITCECTKPDSYPLFDGIFCSSSNAAAKGPSVFPLAPSSKSTSGGTAALGCLVKDYFPEPVTVSWNSGALTSGVHTFPAVLQSSGLYSLSSVVTVPSSSLGTQTYICNVNHKPSNTKVDKKVEPKSCDKTHTCPPCPAPELLGGPSVFLFPPKPKDTLMISRTPEVTCVVVDVSHEDPEVKFNWYVDGVEVHNAKTKPREEQYNSTYRVVSVLTVLHQDWLNGKEYKCKVSNKAFPAPIEKTISKAKGQPREPQVYTLPPSRDKLTKNQVSLTCLVKGFYPSDIAVEWESNGQPENNYKTTPPVLKSDGSFFLYSKLTVDKSRWQQGNVFSCSVMHEALHNHYTQKSLSLSPGKSEKDEL
notes: PfMSP119 (3D7) fused to human IgG1 constant region with E356K and D399K already in the entry; also called MSP119-modHC1_E356K-D399K; PfMSP119_3D7-HC1.2-ER
As for B1, the binding result is reported as “binds”.

The values are drawn from US20180311326A1 (FRAUNHOFER GESELLSCHAFT ZUR FOERDERUNG DER ANGEWANDTEN …, published 2018).
